Experimental findings from PMC2921712 are described below.

Experiment [1] addresses Oregon Green 488-labeled GMPCPP microtubules. As to the kind of experiment: single-molecule TIRF microscopy.
Experiment [2] addresses Xenopus CENP-E^1-473 tagged with TagRFP-T (CENP-E^1-473-RFP) (Xenopus laevis). As to the kind of experiment: single-molecule TIRF microscopy with photobleaching steps.
For another experiment, the target named is microtubules. The experiment can be described thus: co-sedimentation.
Sequence of microtubules (P02550 whole entry, chain 1 of 2): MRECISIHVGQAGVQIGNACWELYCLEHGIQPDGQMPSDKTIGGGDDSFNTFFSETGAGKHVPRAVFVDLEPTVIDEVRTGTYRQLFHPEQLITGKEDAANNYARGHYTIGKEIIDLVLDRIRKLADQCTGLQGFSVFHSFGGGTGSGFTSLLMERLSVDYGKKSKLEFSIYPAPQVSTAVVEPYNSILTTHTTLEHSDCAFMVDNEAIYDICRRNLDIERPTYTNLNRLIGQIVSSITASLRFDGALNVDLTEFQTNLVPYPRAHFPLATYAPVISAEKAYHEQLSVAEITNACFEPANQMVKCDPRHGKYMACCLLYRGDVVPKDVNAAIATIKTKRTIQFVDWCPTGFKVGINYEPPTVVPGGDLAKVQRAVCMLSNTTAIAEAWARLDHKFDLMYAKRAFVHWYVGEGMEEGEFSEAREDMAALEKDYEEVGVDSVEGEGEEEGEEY
Sequence of microtubules (P02554 whole entry, chain 2 of 2, further chain): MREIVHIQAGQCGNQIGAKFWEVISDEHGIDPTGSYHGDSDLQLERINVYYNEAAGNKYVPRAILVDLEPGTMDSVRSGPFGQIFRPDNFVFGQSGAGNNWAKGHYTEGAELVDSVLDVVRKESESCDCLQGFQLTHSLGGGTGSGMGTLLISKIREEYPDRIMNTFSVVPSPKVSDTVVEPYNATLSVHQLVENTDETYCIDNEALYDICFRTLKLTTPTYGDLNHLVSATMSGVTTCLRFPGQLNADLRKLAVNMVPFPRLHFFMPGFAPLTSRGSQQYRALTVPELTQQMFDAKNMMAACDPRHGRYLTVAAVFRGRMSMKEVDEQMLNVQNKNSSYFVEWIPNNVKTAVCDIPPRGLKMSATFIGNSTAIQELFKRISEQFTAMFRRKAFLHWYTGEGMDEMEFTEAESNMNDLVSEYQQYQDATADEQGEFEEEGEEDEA

Sequence of Oregon Green 488-labeled GMPCPP microtubules (P02550 whole entry, chain 1 of 2): as the sequence (P02550 whole entry, chain 1 of 2) above
Sequence of Oregon Green 488-labeled GMPCPP microtubules (P02554 whole entry, chain 2 of 2, further chain): as the sequence (P02554 whole entry, chain 2 of 2, further chain) above

For orientation: stoichiometry N means the number of molecules, sites or subunits per partner or assembly. On to “Xenopus CENP-E^1-473 tagged with TagRFP-T (CENP-E^1-473-RFP) (domain or fragment)”, for which, in experiment [1], the mean duration of binding (t) amounted to 17 s and the time bound at the microtubule end is 5.8 s. The substance further gave a stoichiometry N in experiment [2] of 2. In turn, “Xenopus CENP-E^1-473-RFP phosphorylated by Aurora A (domain or fragment)” returned a mean duration of binding (t) in experiment [1] of 12 s. Usually Kd stands for the concentration at which binding is half-saturated. Read a low Kd as tighter binding. In turn, “Xenopus CENP-E^1-473 phosphorylated by Aurora A (domain or fragment)” had a Kd in the experiment with microtubules of 3 µM.

In the experiment with microtubules, “Xenopus CENP-E motor fragment CENP-E^1-473 (domain or fragment)” gave a Kd of 2 µM.

In the case of “T424A Xenopus CENP-E^1-473 incubated with Aurora A (domain or fragment)”, the Kd with microtubules is 3.4 µM.
